Assay results: PMC4102245, “A molecular model for the role of SYCP3 in meiotic chromosome organisation” (eLife, 2014)

Key:
[1] = target: SYCP3_(ΔCt6) (human SYCP3 amino acids 1–230) (human) (UniProt Q8IZU3); experiment: SEC-MALS; Superdex 200 Increase 10/300 GL, 20 mM Tris pH 8.0, 500 mM KCl; oligomer size of the eluted peak
[2] = target: SYCP3_(ΔNt6) (full length human SYCP3 with 69-EVQNML-74 mutated to alanines) (human) (UniProt Q8IZU3); experiment: as above
[3] = target: the molecule itself; experiment: SEC-MALS; Superdex 200 10/300 GL, 100 μl of 2–3 mg/ml, 20 mM Tris pH 8.0, 500 mM KCl, 25°C; oligomer size of the eluted peak
[4] = target: the molecule itself; experiment: SEC-MALS; Superdex 200 Increase 10/300 GL, 20 mM Tris pH 8.0, 500 mM KCl; oligomer size of the eluted peak
SYCP3 dCt6 WT = target: T1, SYCP3 dCt6 WT (human, UniProt Q8IZU3 1-230); experiment: fluorescence anisotropy; Kd per SYCP3 tetramer; 20 mM Tris pH 8.0, 150 mM KCl; FA at 25 C with 25 nM DNA (0-20 uM protein); EMSA 5 min at 4 C with 18.7 uM (per bp) DNA (0-40 uM protein), 0.5% agarose, 0.5x TBE; settings: protein: recombinant; tags: N-terminal His6, TEV-cleaved; chain copies: 4; label: 5' FAM
T1 sequence: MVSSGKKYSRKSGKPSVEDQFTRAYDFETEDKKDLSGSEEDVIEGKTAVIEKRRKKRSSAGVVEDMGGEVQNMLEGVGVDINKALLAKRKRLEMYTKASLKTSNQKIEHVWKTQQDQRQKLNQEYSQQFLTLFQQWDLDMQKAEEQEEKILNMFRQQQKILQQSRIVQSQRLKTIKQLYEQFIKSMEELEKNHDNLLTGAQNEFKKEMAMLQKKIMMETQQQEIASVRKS

[5] = target: the molecule itself; experiment: SEC-MALS; Superdex 200 10/300 GL, 100 μl of 2–3 mg/ml, 20 mM Tris pH 8.0, 150 mM KCl, 25°C; oligomer size of the eluted peak

With “SYCP3_(ΔCt6) (human SYCP3 amino acids 1–230) (from UniProt Q8IZU3 1-230) (domain or fragment)” the stoichiometry N [1] was 4.

In the case of “SYCP3_(ΔNt6) (full length human SYCP3 with 69-EVQNML-74 mutated to alanines) (from UniProt Q8IZU3 1-236)”, the stoichiometry N [2] is reported as 4.

B1: SYCP3FL (full length human SYCP3, amino acids 1–236) (natural protein, UniProt Q8IZU3 1-236, looked up)
chain: MVSSGKKYSRKSGKPSVEDQFTRAYDFETEDKKDLSGSEEDVIEGKTAVIEKRRKKRSSAGVVEDMGGEVQNMLEGVGVDINKALLAKRKRLEMYTKASLKTSNQKIEHVWKTQQDQRQKLNQEYSQQFLTLFQQWDLDMQKAEEQEEKILNMFRQQQKILQQSRIVQSQRLKTIKQLYEQFIKSMEELEKNHDNLLTGAQNEFKKEMAMLQKKIMMETQQQEIASVRKSLQSMLF
notes: Synaptonemal complex protein 3 (SYCP3), human, Swissprot Q8IZU3, amino acids 1-236 (full length); The methods tell no TEV cleavage for SYCP3FL (only Ni-NTA and buffer exchange), so the His6 tag may have been kept; the printed theoretical tetramer size is 111 kDa; also called full length SYCP3; source: E. coli BL21(DE3) Rosetta2, purified (Ni-NTA, buffer exchange into 20 mM Tris pH 8.0, 500 mM KCl)
With B1 the “stoichiometry N” value [3] was 4.

B2: SYCP3_(ΔCt6) ΔBP1 (amino acids 1–230, BP1 52-KRRKKR-57 mutated to alanines) (domain or fragment, human, UniProt Q8IZU3 1-230, looked up)
chain: MVSSGKKYSRKSGKPSVEDQFTRAYDFETEDKKDLSGSEEDVIEGKTAVIEAAAAAASSAGVVEDMGGEVQNMLEGVGVDINKALLAKRKRLEMYTKASLKTSNQKIEHVWKTQQDQRQKLNQEYSQQFLTLFQQWDLDMQKAEEQEEKILNMFRQQQKILQQSRIVQSQRLKTIKQLYEQFIKSMEELEKNHDNLLTGAQNEFKKEMAMLQKKIMMETQQQEIASVRKS
notes: Synaptonemal complex protein 3 (SYCP3), human, Swissprot Q8IZU3, amino acids 1-230 with basic patch 1 mutated to alanines; source: E. coli BL21(DE3) Rosetta2, purified as described for wild type SYCP3_(ΔCt6); not shown: His6, N-terminal, cleaved
With B2 the “stoichiometry N” value [4] was 4.

B3: SYCP3_(ΔCt6) ΔBP2 (amino acids 1–230, BP2 88-KRKR-91 mutated to alanines) (domain or fragment, human, UniProt Q8IZU3 1-230, looked up)
chain: MVSSGKKYSRKSGKPSVEDQFTRAYDFETEDKKDLSGSEEDVIEGKTAVIEKRRKKRSSAGVVEDMGGEVQNMLEGVGVDINKALLAAAAALEMYTKASLKTSNQKIEHVWKTQQDQRQKLNQEYSQQFLTLFQQWDLDMQKAEEQEEKILNMFRQQQKILQQSRIVQSQRLKTIKQLYEQFIKSMEELEKNHDNLLTGAQNEFKKEMAMLQKKIMMETQQQEIASVRKS
notes: Synaptonemal complex protein 3 (SYCP3), human, Swissprot Q8IZU3, amino acids 1-230 with basic patch 2 mutated to alanines; source: E. coli BL21(DE3) Rosetta2, purified as described for wild type SYCP3_(ΔCt6); not shown: His6, N-terminal, cleaved
For B3, the “stoichiometry N” value [4] was 4.

B4: SYCP3_(ΔCt6) ΔBP1+2 (amino acids 1–230, BP1 and BP2 mutated to alanines) (domain or fragment, human, UniProt Q8IZU3 1-230, looked up)
chain: MVSSGKKYSRKSGKPSVEDQFTRAYDFETEDKKDLSGSEEDVIEGKTAVIEAAAAAASSAGVVEDMGGEVQNMLEGVGVDINKALLAAAAALEMYTKASLKTSNQKIEHVWKTQQDQRQKLNQEYSQQFLTLFQQWDLDMQKAEEQEEKILNMFRQQQKILQQSRIVQSQRLKTIKQLYEQFIKSMEELEKNHDNLLTGAQNEFKKEMAMLQKKIMMETQQQEIASVRKS
notes: Synaptonemal complex protein 3 (SYCP3), human, Swissprot Q8IZU3, amino acids 1-230 with both basic patches mutated to alanines; source: E. coli BL21(DE3) Rosetta2, purified as described for wild type SYCP3_(ΔCt6); not shown: His6, N-terminal, cleaved
For B4, the “stoichiometry N” value [4] was 4.

B5: 60 bp FAM-dsDNA (dsDNA)
DNA 1: ATGGTGTGTGTAGGTTAATGTGAGGAGGAGAGGTGAAGAAGGAGGAGAGAAGAAGGAGGC
DNA 2: GCCTCCTTCTTCTCTCCTCCTTCTTCACCTCTCCTCCTCACATTAACCTACACACACCAT
In the case of B5, the Kd (SYCP3 dCt6 WT) is reported as 200 nM.

B6: SYCP3_(Core) (human SYCP3 amino acids 66–230) (domain or fragment, UniProt Q8IZU3 66-230, looked up)
chain: MGGEVQNMLEGVGVDINKALLAKRKRLEMYTKASLKTSNQKIEHVWKTQQDQRQKLNQEYSQQFLTLFQQWDLDMQKAEEQEEKILNMFRQQQKILQQSRIVQSQRLKTIKQLYEQFIKSMEELEKNHDNLLTGAQNEFKKEMAMLQKKIMMETQQQEIASVRKS
notes: Synaptonemal complex protein 3 (SYCP3), human, Swissprot Q8IZU3, amino acids 66-230; Cloned in pHAT4 with an N-terminal TEV-cleavable His6 tag; homotetramer by SEC-MALS, AUC and crystal structure; also called SYCP_(Core); not shown: His6, N-terminal, cleaved
With B6 the “stoichiometry N” value [5] was 4.
